Data taken from the supplement of paper PMC10567573.

B1: EPB41L3 (parent)
chain: SMQCKVILLDGSEYTCDVEKRSRG
B2: KCNK9 (parent)
chain: CFITLTTIGFGDYVALQTKGALQK

Variants of: B1
Experiment: protein stability index of a GFP-peptide fusion (GPS, HEK-293T) (PSI 1-6); higher = more stable
Conditions: c terminus: a fixed tail appended
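Further: lentivirally expressed fusions sorted by FACS into six bins by GFP to DsRed ratio, PSI derived from sequencing read proportions per bin multiplied by bin number.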

Point of comparison: STQCKVILLDGSEYTCDVEKRSRG [M2T], protein stability index 3.53. Against it:
- SMQLKVILLDGSEYTCDVEKRSRG [C4L] — lower, 2.04
- SMQSKVILLDGSEYTCDVEKRSRG [C4S] — higher, 3.78
- SMQDKVILLDGSEYTCDVEKRSRG [C4D] — higher, 4.23
- SMQRKVILLDGSEYTCDVEKRSRG [C4R] — higher, 4.51
- SMQHKVILLDGSEYTCDVEKRSRG [C4H] — lower, 3.46
- SMQVKVILLDGSEYTCDVEKRSRG [C4V] — lower, 3.17
- SMQGKVILLDGSEYTCDVEKRSRG [C4G] — higher, 4.33
- SMQFKVILLDGSEYTCDVEKRSRG [C4F] — lower, 2.03
- SMQAKVILLDGSEYTCDVEKRSRG [C4A] — higher, 3.93
- SMQKKVILLDGSEYTCDVEKRSRG [C4K] — higher, 4.37
- SMQTKVILLDGSEYTCDVEKRSRG [C4T] — higher, 3.61
- SMQQKVILLDGSEYTCDVEKRSRG [C4Q] — higher, 4.28
- SMQMKVILLDGSEYTCDVEKRSRG [C4M] — lower, 2.6
- SMQPKVILLDGSEYTCDVEKRSRG [C4P] — higher, 3.94
- SMQEKVILLDGSEYTCDVEKRSRG [C4E] — higher, 4.48
- SMQNKVILLDGSEYTCDVEKRSRG [C4N] — lower, 3.07
- SMQIKVILLDGSEYTCDVEKRSRG [C4I] — lower, 2.41
- IMQCKVILLDGSEYTCDVEKRSRG [S1I] — lower, 1.93
- PMQCKVILLDGSEYTCDVEKRSRG [S1P] — lower, 3.04
- NMQCKVILLDGSEYTCDVEKRSRG [S1N] — lower, 2.34
- CMQCKVILLDGSEYTCDVEKRSRG [S1C] — lower, 1.74
- LMQCKVILLDGSEYTCDVEKRSRG [S1L] — lower, 2.2
- WMQCKVILLDGSEYTCDVEKRSRG [S1W] — lower, 2
- EMQCKVILLDGSEYTCDVEKRSRG [S1E] — lower, 3.32
- YMQCKVILLDGSEYTCDVEKRSRG [S1Y] — lower, 1.37
- FMQCKVILLDGSEYTCDVEKRSRG [S1F] — lower, 2
- GMQCKVILLDGSEYTCDVEKRSRG [S1G] — lower, 2.37
- KMQCKVILLDGSEYTCDVEKRSRG [S1K] — lower, 1.93
- RMQCKVILLDGSEYTCDVEKRSRG [S1R] — lower, 1.95
- VMQCKVILLDGSEYTCDVEKRSRG [S1V] — lower, 1.78
- MMQCKVILLDGSEYTCDVEKRSRG [S1M] — lower, 3.46
- DMQCKVILLDGSEYTCDVEKRSRG [S1D] — lower, 3.27
- HMQCKVILLDGSEYTCDVEKRSRG [S1H] — lower, 2.19
- QMQCKVILLDGSEYTCDVEKRSRG [S1Q] — lower, 2.64
- AMQCKVILLDGSEYTCDVEKRSRG [S1A] — lower, 2.86
- TMQCKVILLDGSEYTCDVEKRSRG [S1T] — lower, 1.92
- SDQCKVILLDGSEYTCDVEKRSRG [M2D] — lower, 3.38
- SQQCKVILLDGSEYTCDVEKRSRG [M2Q] — higher, 3.64
- SEQCKVILLDGSEYTCDVEKRSRG [M2E] — higher, 4.4
- SVQCKVILLDGSEYTCDVEKRSRG [M2V] — lower, 2.6
- SIQCKVILLDGSEYTCDVEKRSRG [M2I] — lower, 2.12
- SNQCKVILLDGSEYTCDVEKRSRG [M2N] — higher, 4.06
- SFQCKVILLDGSEYTCDVEKRSRG [M2F] — lower, 2.55
- SRQCKVILLDGSEYTCDVEKRSRG [M2R] — lower, 2.72
- SAQCKVILLDGSEYTCDVEKRSRG [M2A] — lower, 3.24
- SGQCKVILLDGSEYTCDVEKRSRG [M2G] — lower, 3.36
- SLQCKVILLDGSEYTCDVEKRSRG [M2L] — lower, 2.55
- SCQCKVILLDGSEYTCDVEKRSRG [M2C] — lower, 2.08
- SSQCKVILLDGSEYTCDVEKRSRG [M2S] — lower, 3.2
- SYQCKVILLDGSEYTCDVEKRSRG [M2Y] — lower, 1.5
- SPQCKVILLDGSEYTCDVEKRSRG [M2P] — lower, 3.42
- SHQCKVILLDGSEYTCDVEKRSRG [M2H] — lower, 2.9
- SKQCKVILLDGSEYTCDVEKRSRG [M2K] — lower, 3.24
- SMPCKVILLDGSEYTCDVEKRSRG [Q3P] — higher, 3.63
- SMVCKVILLDGSEYTCDVEKRSRG [Q3V] — lower, 2.63
- SMYCKVILLDGSEYTCDVEKRSRG [Q3Y] — lower, 2.07
- SMKCKVILLDGSEYTCDVEKRSRG [Q3K] — lower, 2.68
- SMDCKVILLDGSEYTCDVEKRSRG [Q3D] — higher, 3.75
- SMWCKVILLDGSEYTCDVEKRSRG [Q3W] — lower, 1.19
- SMGCKVILLDGSEYTCDVEKRSRG [Q3G] — lower, 2.38
- SMECKVILLDGSEYTCDVEKRSRG [Q3E] — higher, 3.81
- SMMCKVILLDGSEYTCDVEKRSRG [Q3M] — lower, 3.35
- SMSCKVILLDGSEYTCDVEKRSRG [Q3S] — lower, 2.98
- SMLCKVILLDGSEYTCDVEKRSRG [Q3L] — lower, 1.49
- SMACKVILLDGSEYTCDVEKRSRG [Q3A] — lower, 2.9
- SMICKVILLDGSEYTCDVEKRSRG [Q3I] — lower, 2.44
- SMTCKVILLDGSEYTCDVEKRSRG [Q3T] — lower, 2.48
- SMCCKVILLDGSEYTCDVEKRSRG [Q3C] — lower, 2.16
- SMRCKVILLDGSEYTCDVEKRSRG [Q3R] — lower, 2.37
- SMNCKVILLDGSEYTCDVEKRSRG [Q3N] — lower, 2.76
- SMFCKVILLDGSEYTCDVEKRSRG [Q3F] — lower, 3.2
- SMHCKVILLDGSEYTCDVEKRSRG [Q3H] — lower, 2.83

Variants of: B2
Experiment: as above
Conditions: c terminus: a fixed tail appended

Point of comparison: CFITLTTIGFGDYVALQTKGALQL [K24L], protein stability index 2.51. Against it:
- CFITLTTIGFGDYVALQTKGALQP [K24P] — higher, 2.96
- CFITLTTIGFGDYVALQTKGALQS [K24S] — higher, 3.33
- CFITLTTIGFGDYVALQTKGALQY [K24Y] — higher, 3.16
- CFITLTTIGFGDYVALQTKGALQG [K24G] — lower, 2.28
- CFITLTTIGFGDYVALQTKGALQD [K24D] — higher, 3.71
- CFITLTTIGFGDYVALQTKGALQV [K24V] — higher, 3.03
- CFITLTTIGFGDYVALQTKGALQQ [K24Q] — lower, 2.33
- CFITLTTIGFGDYVALQTKGALQN [K24N] — higher, 3.29
- CFITLTTIGFGDYVALQTKGALQI [K24I] — lower, 2.09
- CFITLTTIGFGDYVALQTKGALQM [K24M] — higher, 2.88
- CFITLTTIGFGDYVALQTKGALQE [K24E] — higher, 3.56
- CFITLTTIGFGDYVALQTKGALQA [K24A] — higher, 2.85
- CFITLTTIGFGDYVALQTKGALQT [K24T] — higher, 3.42
- CFITLTTIGFGDYVALQTKGALQH [K24H] — lower, 2.47
- CFITLTTIGFGDYVALQTKGALQC [K24C] — higher, 2.9
- CFITLTTIGFGDYVALQTKGALQF [K24F] — higher, 3.25
- CFITLTTIGFGDYVALQTPGALQK [K19P] — higher, 4.04
- CFITLTTIGFGDYVALQTAGALQK [K19A] — higher, 3.43
- CFITLTTIGFGDYVALQTDGALQK [K19D] — higher, 3.22
- CFITLTTIGFGDYVALQTRGALQK [K19R] — higher, 3.19
